Reference: US20240324599A1, “PESTICIDAL ENZYMES FOR USE ON NEMATODES, INSECTS, AND MOLLUSKS” (priority 2023, published 2024)

How the values were obtained:
Format in all cases: in vivo
[1] = tested on: soybean cyst nematode (SCN, Heterodera glycines); test: Controlled environment soybean seed treatment trial: SCN cysts on roots; details: for % Comparison to Control: base control = 100%
[2] = tested on: Fall armyworm (Spodoptera frugiperda); test: Diet-surface overlay (DSO) bioassay; details: number of individuals
Description: (§1) Diet-surface overlay bioassays are conducted with artificial diet mixes without antibiotics in 1.5 cm^2 cell bioassay trays(s). Artificial diets are commercially available from Southland Products Inc. Diets were prepared by dispersing 0.5 mL of molten diet to each 1.5 cm^2 cell. After solidification, 0.1 mL enzyme treatments were dispersed on top of diet in each cell and the tray was gently rocked in an orbital shaker to spread the liquid uniformly over the diet surface. Trays were placed under clean airflow until the surface of each cell was uniformly dried. One or two 16-cell sections were used per treatment (the number in larvae treated was 16 or 32).
(§2) One healthy first instar larva was placed into each treatment cell, each 16-cell section was covered with a re-sealable lid and incubated at 27° C. and light-dark period of 16:8 hrs. After 7 days, and according to the species, the number of individuals in the following developmental categories was recorded.
(§3) Negative/untreated controls were treated with filtered water and positive controls were treated with lethal doses of Bacillus thuringiensis subsp. Kurstaki (Btk) spores at 1000 ppm.

[3] = tested on: Btk resistant Diamondback moth; test: Diet-surface overlay (DSO) bioassay; details: Table 47, Btk resistant
Description: as §1, §2
Diamondback moth (Plutella xylostella): Dead Larva (lack of movement), Larva Stage I (≤50% relative size), Larva Stage II (100% relative size, full size), Early Pupa (light green color), Late Pupa (light-dark brown color), and Adult.
as §3
However, both neutral proteases reduced the number of individuals reaching adult stage.

[4] = Table 50, esterases, n=32, dose per treatment in U/mL Diet

B1: Bacillus pumulis Collagenase B (ColB) (protein, listed as Bacillus pumulis, listed as Bacillus pumilus)
chain: IVNGKRVITKKPELLAPAGNLEKLKIAVHYGADAVFIGGQEYGLRSNADNFTIEEIAEGVEFAKKYGAKIYVTTNIFAHNENMDGLEDYLKALGDANVAGIIVADPLIIETCRRVAPNVEVHLSTQQSLSNWKAVQFWKEEGLDRVVLARETSALEIREMKEKVDIEIESFIHGAMCIAYSGRCVLSNHMTARDSNRGGCCQSCRWDYDLYQTDGANAVALYGEEDAPFAMSPKDLKLIESIPKMIEMGIDSLKIEGRMKSIHYVATVVSVYRKVIDAYCADPENFVIQKEWLEELDKCANRDTATAFFEGTPGYEEQMFGEHAKKTTYDFVGLVLNYDEDTQMVTLQQRNFFKKGDEVEFFGPEIENFTHTIETIWDEDGNELDAARHPLQIVKFKLDKKIYPSNMMRKGK
modifications: Collagenase B (ColB)
% Comparison to Control ([1]; Table 22, change in brackets): 15% (−85%)
Average cysts per g of root tissue ([1]; Table 22, free enzyme seed treatment, soybean 2830E3, base control 470.7): 70.9 cysts per g of root tissue

B2: Chitinase C (protein, listed as Bacillus thuringiensis)
chain: DSPKQSQKIVGYFPSWGVYGRNYQVADIDASKLTHLNYAFADICWKGKHGNPSTHPDNPNKQTWNCKESGVPLQNKEVPNGTLVLGEPWADVTKSYPGSGTTWEDCDKYARCGNFGELKRLKAKYPHLKTIISVGGWTWSNRFSDMAADEKTRKVFAESTVAFLRAYGFDGVDLDWEYPGVETIPGGSYRPEDKQNFTLLLQDVRNALNKAGAEDGKQYLLTIASGASQRYADHTELKKISQILDWINIMTYDFHGGWEATSNHNAALYKDPNDPAANTNFYVDGAIDVYTNEGVPVDKLVLGVPFYGRGWKSCGKENNGQYQPCKPGSDGKLASKGTWDDYSTGDTGVYDYGDLTANYVNKNGFVRYWNDTAKVPYLYNATTGTFISYDDNESMKYKTDYIKTKGLSGAMFWELSGDCRTSPKYSCSGPKLLDTLVKELLGGPINQKDTEPPTNVKNIIVTNKTSSSVQLSWTASTDNVGVTEYEITAGEEKWSATTNSITIKNLKPNTEYTFSVIAKDASGNKSHPTALTVKTDEANTTPPDGNGTATFSVTSNWGSGYNFSIIIKNNGTIPIKNWKLEFDYSGNLTQVWDSKISSKTNNHYVITNAGWNGEIPPGGSITIGGAGTGNPAELLNAVISEN
% Comparison to Control ([1]; Table 18, change in brackets): 78% (−22%)
Average cysts per g of root tissue ([1]; Table 18, free enzyme seed treatment, base control 58.3): 45.7 cysts per g of root tissue

B3: H6-pytH (SEQ ID NO: 95) (protein, listed as Sphingobium wenxiniae)
chain: MTVTDIILIHGALNRGACYDAVVPLLEARGYRVHAPDLTGHTPGDGGHLSVVDMEHYTRPVADILARAEGQSILLGHSLGGASISWLAQHHPDKVAGLIYLTAVLTAPGITPETFVLPGEPNRGTPHALDLIQPVDEGRGLQADFSRLERLREVFMGDYPGEGMPPAEQFIQTQSTVPFGTPNPMEGRALEIPRLYIEALDDVVIPIAVQRQMQKEFPGPVAVVSLPASHAPYYSMPERLAEAIADFADAPAEYRQTATKAGPDRPAGADGGRADRADLP
modifications: Esterase (pytH)
Larva Stage I ([2]; Table 50, esterases, n=32): 0
Larva Stage II ([2]; Table 50, esterases, n=32): 0
Larva Stage III ([2]; Table 50, esterases, n=32): 13
Larva Stage IV ([2]; Table 50, esterases, n=32): 19
Dead Larva [2, 4]: 0

B4: Akanthomyces lecanii Acidic Chitinase 1 (Chit1) (protein, listed as Akanthomyces lecanii)
chain: MAKCTSPDRKCPAPLIDAPINSFMTDGWADTDIHWEGDSWNDSGTNIYGCLKQLNILKKHNRNFKVLLSIGGWTYSSNFPAPASTPEGRDTFAKSCVELVKNLGFDGIDIDWEYPKTAEEAGHFVELLAEVRKQLDEYSARAANNYHFELSVACPAGPDNFQKLNISGMDAYLDFWNLMAYDYAGSWDKNSGHQANLYPCKDAPGCTPFSTVAAVDYYTSNGVSPDKLVLGMPLYGRAFENCDGIGQPFQGVGQGTWEQGVYDYKKLPLEGAEEHKDDDSCATYCHNAESRTLVTYDTPELAKTKADFIKERGLGGGMWWESSADKAGDDSLIQVVVSELGGPEALKQQQNCISYPETKYDNLRDGLPDN
modifications: Acidic Chitinase 1 (Chit1-H195)
Dead Larva ([3]; individuals of n = 32 after 7 days, mU/mL diet: SEQ 182 3.7, SEQ 185 0.6, water 1): 2
Early Pupa ([3]; n = 32, doses as E97, water 0): 8
Larva Stage I ([3]; n = 32, doses as E97, water 0): 2
Larva Stage II ([3]; n = 32, doses as E97, water 0): 2
Adult ([3]; n = 32, doses as E97, water 7): 1
Late Pupa ([3]; n = 32, doses as E97, water 24): 17
Larva Stage I ([2]; Table 48, chitinases, n = 32): 4
Larva Stage II ([2]; Table 48, chitinases, n = 32): 5
Larva Stage III ([2]; Table 48, chitinases, n = 32): 8
Larva Stage IV ([2]; Table 48, chitinases, n = 32): 8
Dead Larva ([2]; Table 48, chitinases, n = 32, dose per treatment in mU/mL Diet): 7

B5: H6-pnbA (SEQ ID NO: 94) (protein, listed as Bacillus subtilis)
chain: MTHQIVTTQYGKVKGTTENGVHKWKGIPYAKPPVGQWRFKAPEPPEVWEDVLDATAYGSICPQPSDLLSLSYTELPRQSEDCLYVNVFAPDTPSKNLPVMVWIHGGAFYLGAGSEPLYDGSKLAAQGEVIVVTLNYRLGPFGFLHLSSFNEAYSDNLGLLDQAAALKWVRENISAFGGDPDNVTVFGESAGGMSIAALLAMPAAKGLFQKAIMESGASRTMTKEQAASTSAAFLQVLGINEGQLDKLHTVSAEDLLKAADQLRIAEKENIFQLFFQPALDPKTLPEEPEKAIAEGAASGIPLLIGTTRDEGYLFFTPDSDVHSQETLDAALEYLLGKPLAEKVADLYPRSLESQIHMMTDLLFWRPAVAYASAQSHYAPVWMYRFDWHPKKPPYNKAFHALELPFVFGNLDGLERMAKAEITDEVKQLSHTIQSAWITFAKTGNPSTEAVNWPAYHEETRETLILDSEITIENDPESEKRQKLFPSKGE
modifications: Esterase (pnbA)
Larva Stage I ([2]; Table 50, esterases, n=32): 0
Larva Stage II ([2]; Table 50, esterases, n=32): 0
Larva Stage III ([2]; Table 50, esterases, n=32): 15
Larva Stage IV ([2]; Table 50, esterases, n=32): 17
Dead Larva [2, 4]: 0

B6: Trichoderma lixii trypsin-like protease (protein, listed as Trichoderma lixii)
chain: AAITPRGSDIVGGTTAALGEFPYIVSLSTGGSHFCGGVLIDSRTVVTAGHCTIDQRASSVKVRAGTLTWASGGTQVGVSSLTLHPSYTVDSQGVPDNDVGVWHLATAIPTSSTIGYATLPASGSDPAAGTTLTVAGWGTTSENSNSLPSTLRKVSVPVVARATCDSDYDGEISNNMFCAAVAAGGKDSCSGDSGGPIIDPSGTLVGVVSWGQGCAERGFPGVYTRLGNYVSFINSNRG
modifications: H182 trypsin-like protease
% Comparison to Control ([1]; Table 11): 26%
Average cysts per g of root tissue ([1]; Table 11, free enzyme seed treatment 2 fl oz/unit, soybean P18A98X, ILEVO 0.15 mg AI/seed, 3 weeks after inoculation, base control 71.4): 18.6 cysts per g of root tissue

B7: Bacillus thuringiensis Lipase 2 (protein, listed as Bacillus thuringiensis)
chain: EVVKELGKGFPDTEVFTPGEWFLGQKPANYDENKPPILFVQGRNGNADSWYGKTVYHDINDMYDYALKAGYQTVFIQLYDAAGKGSASQWDNGKLLAQKLEEIYNYFGKKVNIVAHSKGGIDTQAALVEYGANRFVGNVITLATPHHGSNLADLSYSWWAGWLASILGQKDDGTYSLQIGEMAKFRSIIDNNPAAKLNRYYTATGTSWGPTFSALSMGGLYLSSYGSNDGLVNEWSAKLSYGTHLFTDSRFDHDNIRKGSAVFARIEPYLRTTNVGLPALVASSTSSNEDLEQLNTTSNQNILGGELPQNQWIEQSISVDKKAEGIVSVLTASSDVEVQMVSPKGKIYANKDSAITTGEGESFFNRATIRTFKFDKLEVGEWKIKMMAKQSKDAYLVVSDYKDDAPFVLRMPTKVKINKPEYKLKKSPVAPEMKGDLSITVRVVNKEGKLVSEFNELQNVNTNTFTGALKDIKQPGVYNVTMDIKGMNKEGKPYNRTIVKSVYVEK
% Comparison to Control ([1]; Table 20, change in brackets): 57% (−43%)
Average cysts per g of root tissue ([1]; Table 20, free enzyme seed treatment, soybean 2830E3, base control 459.7): 264.3 cysts per g of root tissue

B8: Pseudomonas sp. esterase free enzyme concentrate (SEQ ID NO: 248): free enzyme concentrated in an Amicon Ultra 4K filter unit (protein, listed as Pseudomonas sp.)
chain: MTEPLILQPVKPADACVIWLHGLGADRYDFLPVAEALQEILLSTRFVLPQAPTRPVTINGGYAMPSWYDIKAMSPARAIDRDELEASADRIIELIEEQRSSGIDASRIFLAGFSQGGAVVYHTAFLKWQGPLGGVLALSTYAPTFSDELELSASQQRIPVLSLHGQFDNVVQNSMGRTAYEYLKAHGVTVTWQEYPMEHEVLPEEIRDIGTWLSERLR
% Comparison to Control ([1]; Table 16, change in brackets): 75% (−25%)
Average cysts per g of root tissue ([1]; Table 16, seed treatment, soybean 2830E3, concentrate = 4× volumetric concentration, base control 244.3): 182.1 cysts per g of root tissue

B9: Bacillus thuringiensis Lipase 1 (protein, listed as Bacillus thuringiensis)
chain: YGFVSGVNDVLNPKASNLIKKTDVVAKEKKKTGTLQIVSLGDSLTRGVGDKEGIGYVGRMKEDLQKDYKQKIALTNLAVSGAKMPDLLKQIESNGAQYSIKQADVIVLTIGGNDLFPGWESLGKIDLETYRPDTETFQNEAKKIIEEIRKLNTDSPIFWLGLYNPFEDVEDLKGSSNIVVDWNASLEKLALNDKNVYITPTFDLFQNRGKDLLYSDHFHPNEVGYTYMAERLVQNVVSKLKLEQGGVK
% Comparison to Control ([1]; Table 19, change in brackets): 75% (−25%)
Average cysts per g of root tissue ([1]; Table 19, free enzyme seed treatment, soybean 2830E3, base control 442.5): 332.0 cysts per g of root tissue
